Starred links: 1 amine or outer side, 2 acyl side, 3 side chain; linkers in the order of their positions; H or OH if unused. Non-standard residues stand in square brackets, D forms with d. Groups on a side chain read outwards from the residue. No end group written: not given here. *: point of attachment. C20 diacid = O=C(O)CCCCCCCCCCCCCCCCCCC(=O)*; αMePhe(2-F) = C[C@](N)(Cc1ccccc1F)C(=O)O; γGlu = O=C(O)[C@H](CCC(=O)[*:2])N[*:1]; αMeL = CC(C)C[C@](C)(N)C(=O)O; Orn = NCCC[C@H](N)C(=O)O; AEEA = NCCOCCOCC(=O)O; Aib = CC(C)(N)C(=O)O
Experiments:
Assay in all cases: cell-based or functional assay
[1] = target: hGLP-1R (Homo sapiens, UniProt P43220)
[2] = target: T1, human GIP receptor (human) (UniProt P48546)
T1 sequence (looked up): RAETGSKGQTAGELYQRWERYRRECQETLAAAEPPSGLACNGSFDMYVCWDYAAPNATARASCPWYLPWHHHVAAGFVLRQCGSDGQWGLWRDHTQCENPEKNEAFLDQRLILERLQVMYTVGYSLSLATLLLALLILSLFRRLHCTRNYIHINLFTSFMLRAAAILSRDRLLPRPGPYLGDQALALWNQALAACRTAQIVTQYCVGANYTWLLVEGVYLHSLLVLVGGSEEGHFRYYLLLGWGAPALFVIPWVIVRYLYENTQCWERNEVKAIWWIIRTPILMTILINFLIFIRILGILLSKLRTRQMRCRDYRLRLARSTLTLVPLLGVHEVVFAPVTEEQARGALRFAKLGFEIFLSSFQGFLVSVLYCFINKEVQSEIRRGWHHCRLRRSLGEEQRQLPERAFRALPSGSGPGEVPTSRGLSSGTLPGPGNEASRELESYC

[3] = target: human glucagon receptor (human) (UniProt P47871)
Sequence of human glucagon receptor (human) (P47871 26-477): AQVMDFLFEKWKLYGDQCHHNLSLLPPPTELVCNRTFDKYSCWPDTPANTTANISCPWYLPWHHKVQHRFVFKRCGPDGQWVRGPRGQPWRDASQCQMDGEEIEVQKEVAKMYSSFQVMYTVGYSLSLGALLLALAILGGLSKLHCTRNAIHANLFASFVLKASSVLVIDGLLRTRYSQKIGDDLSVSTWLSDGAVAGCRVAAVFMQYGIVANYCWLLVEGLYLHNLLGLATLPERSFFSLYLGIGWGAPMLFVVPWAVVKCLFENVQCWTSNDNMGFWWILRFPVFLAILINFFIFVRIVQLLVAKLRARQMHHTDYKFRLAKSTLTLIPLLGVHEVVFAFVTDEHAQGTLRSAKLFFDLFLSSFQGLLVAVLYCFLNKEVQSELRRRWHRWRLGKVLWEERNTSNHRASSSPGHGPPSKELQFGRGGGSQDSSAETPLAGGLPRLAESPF

Sequence of hGLP-1R (P43220 24-463): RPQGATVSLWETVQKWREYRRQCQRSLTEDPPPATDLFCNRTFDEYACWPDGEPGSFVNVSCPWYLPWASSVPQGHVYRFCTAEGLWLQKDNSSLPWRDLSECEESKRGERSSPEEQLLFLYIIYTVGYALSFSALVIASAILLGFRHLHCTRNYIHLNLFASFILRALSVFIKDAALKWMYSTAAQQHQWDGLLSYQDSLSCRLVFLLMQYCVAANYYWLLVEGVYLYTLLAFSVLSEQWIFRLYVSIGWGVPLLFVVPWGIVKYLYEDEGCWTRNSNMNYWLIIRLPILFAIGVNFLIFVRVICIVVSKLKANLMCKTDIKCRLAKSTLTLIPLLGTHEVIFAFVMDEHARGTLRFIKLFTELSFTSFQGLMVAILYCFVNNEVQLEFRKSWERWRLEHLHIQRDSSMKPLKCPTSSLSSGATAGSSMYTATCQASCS

Binder	Relative cAMP EC50 [1]	cAMP Rel EC50 (1% HSA) [1]	Relative cAMP EC50 [2]	cAMP Rel EC50 (1% HSA) [2]	Relative cAMP EC50 [3]	cAMP Rel EC50 (1% HSA) [3]	Relative cAMP EC50, nM (0.1% casein) [1]	Relative cAMP EC50, nM (0.1% casein) [2]	Relative cAMP EC50, nM (0.1% casein) [3]
Y[Aib]QGT[αMePhe(2-F)]TSDYSILLDKAAQK[Orn]FIEYLIEGGPSSGEPPPSEG-NH2 (not fully specified (residue 20)) [Example 306]	0.335 nM	126 nM	0.142 nM	95.3 nM	5.8 nM	2820 nM	–	–	–
Y[Aib]QGT[αMePhe(2-F)]TSDYSKLLDKIAQK([AEEA-γGlu-C20 diacid])[Orn]FIEWLIEGGPSSGEPPPSEG-NH2 [Example 310]	0.586 nM	177 nM	0.0939 nM	15 nM	3.52 nM	4000 nM	–	–	–
Y[Aib]QGTFTSDYSI[αMeL]LDKIAAK([AEEA-AEEA-γGlu-C20 diacid])QFVEYLIAGGPSSGEPPPSEG-NH2 [Example 312]	2.66 nM	589 nM	0.504 nM	97.7 nM	7.5 nM	4070 nM	–	–	–
Y[Aib]QGTFTSDYSI[αMeL]LDKK([AEEA-γGlu-C20 diacid])AQRAFIEYLLEGGPSSGEPPPSG-NH2 (N-terminus assumed; SMILES CC[C@H](C)[C@H](NC(=O)[C@H](Cc1ccccc1)NC(=O)[C@H](C)NC(=O)[C@H](CCCNC(=N)N)NC(=O)[C@H](CCC(N)=O)NC(=O)[C@H](C)NC(=O)[C@H](CCCCNC(=O)COCCOCCNC(=O)CC[C@H](NC(=O)CCCCCCCCCCCCCCCCCCC(=O)O)C(=O)O)NC(=O)[C@H](CCCCN)NC(=O)[C@H](CC(=O)O)NC(=O)[C@H](CC(C)C)NC(=O)[C@](C)(CC(C)C)NC(=O)[C@@H](NC(=O)[C@H](CO)NC(=O)[C@H](Cc1ccc(O)cc1)NC(=O)[C@H](CC(=O)O)NC(=O)[C@H](CO)NC(=O)[C@@H](NC(=O)[C@H](Cc1ccccc1)NC(=O)[C@@H](NC(=O)CNC(=O)[C@H](CCC(N)=O)NC(=O)C(C)(C)NC(=O)[C@@H](N)Cc1ccc(O)cc1)[C@@H](C)O)[C@@H](C)O)[C@@H](C)CC)C(=O)N[C@@H](CCC(=O)O)C(=O)N[C@@H](Cc1ccc(O)cc1)C(=O)N[C@@H](CC(C)C)C(=O)N[C@@H](CC(C)C)C(=O)N[C@@H](CCC(=O)O)C(=O)NCC(=O)NCC(=O)N1CCC[C@H]1C(=O)N[C@@H](CO)C(=O)N[C@@H](CO)C(=O)NCC(=O)N[C@@H](CCC(=O)O)C(=O)N1CCC[C@H]1C(=O)N1CCC[C@H]1C(=O)N1CCC[C@H]1C(=O)N[C@@H](CO)C(=O)NCC(N)=O) [Example 313]	0.304 nM	135 nM	0.49 nM	86.4 nM	4.11 nM	3290 nM	–	–	–
Y[Aib]QGTFTSDYSK[αMeL]LDKK([AEEA-γGlu-C20 diacid])AQQAFIQWLIEGGPSSGEPPPSEG-NH2 [Example 314]	0.274 nM	100 nM	0.345 nM	65.9 nM	3.7 nM	1030 nM	–	–	–
Y[Aib]QGTFTSDYSKLLDKK([AEEA-γGlu-C20 diacid])AQ[Aib]AFVQWLIEGGPSSGEPPPSEG-NH2 [Example 316]	0.362 nM	78.7 nM	0.259 nM	102 nM	5.22 nM	2090 nM	–	–	–
Y[Aib]QGTFTSDYSI[αMeL]LDKQAAK([AEEA-AEEA-γGlu-C20 diacid])AFVEWLLA[Aib]GPSSGEPPPSEG-NH2 [Example 317]	1.32 nM	234 nM	0.474 nM	62.8 nM	2.42 nM	1500 nM	–	–	–
Y[Aib]QGTFTSDYSI[αMeL]LDKQAAK([AEEA-AEEA-γGlu-C20 diacid])QFIEWLIEGGPSSGEPPPGEG-NH2 [Example 318]	0.698 nM	111 nM	0.378 nM	52.8 nM	5.03 nM	1970 nM	–	–	–
Y[Aib]QGTFTSDYSI[αMeL]LDKQAAK([AEEA-AEEA-γGlu-C20 diacid])QFIEWLIEGGPSSGEPPPGAE-NH2 [Example 319]	0.947 nM	119 nM	0.485 nM	60.1 nM	4.81 nM	1650 nM	–	–	–
Y[Aib]QGTFTSDYSI[αMeL]LDKQAAK([AEEA-AEEA-γGlu-C20 diacid])QFVEWLLAGGPSSGEPPPGEG-NH2 [Example 320]	2.58 nM	328 nM	0.274 nM	55.3 nM	6.87 nM	1170 nM	–	–	–
Y[Aib]QGTFTSDYSK[αMeL]LDKK([AEEA-γGlu-C20 diacid])AQQAFIEYLIAGGPSSGAPPPSSE-NH2 [Example 322]	0.394 nM	135 nM	0.264 nM	89.3 nM	5.41 nM	2620 nM	–	–	–
Y[Aib]QGTFTSDYSI[αMeL]LDKIAAK([AEEA-AEEA-γGlu-C20 diacid])QFVEWLLA[Aib]GPSSGEPPPSEG-NH2 [Example 324]	4.4 nM	1060 nM	0.164 nM	20.7 nM	5.74 nM	1410 nM	–	–	–
Y[Aib]QGTFTSDYSI[αMeL]LDKQAAK([AEEA-AEEA-γGlu-C20 diacid])QFVNWLLA[Aib]GPSSGEPPPSEG-NH2 [Example 325]	1.56 nM	371 nM	0.351 nM	82.7 nM	2.43 nM	774 nM	–	–	–
Y[Aib]QGTFTSDYSI[αMeL]LDKQAAK([AEEA-AEEA-γGlu-C20 diacid])QFVEWLIA[Aib]GPSSGEPPPSEG-NH2 [Example 326]	0.555 nM	172 nM	0.3 nM	83.7 nM	5.34 nM	1500 nM	–	–	–
Y[Aib]QGTFTSDYSI[αMeL]LDKQAAK([AEEA-AEEA-γGlu-C20 diacid])QFVEWLLA[Aib]GPSSGAPPPSEG-NH2 [Example 327]	1.61 nM	473 nM	0.312 nM	63.3 nM	3.04 nM	1400 nM	–	–	–
Y[Aib]QGTFTSDYSI[αMeL]LD[Orn]QAAK([AEEA-AEEA-γGlu-C20 diacid])QFVEWLLA[Aib]GPSSGEPPPSEG-NH2 [Example 328]	1.3 nM	462 nM	0.544 nM	91.1 nM	10.3 nM	2040 nM	–	–	–
YXQGTXTSDXSILLDXIAQXAFIKYLEEGGPSSGAPPPS (synthetic construct; SITE 2: note = 2-Aminoisobutyric Acid; SITE 6: note = alpha-methyl-2-fluoro-L-phenylalanine; SITE 10: note = 3-(4-Pyridyl)-L-alanine; SITE 16: note = L-ornithine; SITE 20: note = 2-Aminoisobutyric Acid; SITE 24: note = Lysine is chemically modified through conjugation of the eps) [Example 454]	–	–	–	–	–	–	0.821 nM	0.0154 nM	9.11 nM
YXQGTXTSDYSIXLDKIAQXAFIKYLEEGGPSSGAPPPS (synthetic construct; SITE 2: note = 2-Aminoisobutyric Acid; SITE 6: note = alpha-methyl-2-fluoro-L-phenylalanine; SITE 13: note = alpha-methyl-leucine; SITE 20: note = 2-Aminoisobutyric Acid; SITE 24: note = Lysine is chemically modified through conjugation of the epsilon-amino group of the Lysine s) [Example 455]	–	–	–	–	–	–	0.49 nM	0.0182 nM	4.36 nM
YXQGTFTSDFSXXLDKKAQXAFIEXLLEGGPSSGAPPPGGS (synthetic construct; SITE 2: note = 2-Aminoisobutyric Acid; SITE 12: note = L-ornithine; SITE 13: note = alpha-methyl-leucine; SITE 17: note = Lysine is chemically modified through conjugation of the epsilon-amino group of the Lysine side chain with (2-[2-(2-Amino-ethoxy)-ethoxy]-acetyl)-(gamma-Glu)) [Example 496]	–	–	–	–	–	–	9.69 nM	0.387 nM	8.25 nM
YXQGTXTSDXSIXLDKKAQXXFIEYLAEGGPSSGEPPPEGSEE (synthetic construct; SITE 2: note = 2-Aminoisobutyric Acid; SITE 6: note = alpha-methyl-2-fluoro-L-phenylalanine; SITE 10: note = 3-(4-Pyridyl)-L-alanine; SITE 13: note = alpha-methyl-leucine; SITE 17: note = Lysine is chemically modified through conjugation of the epsilon-amino group of the Lysine) [Example 650 (SEQ ID NO: 656)]	0.649 nM	–	0.0814 nM	–	16.2 nM	–	–	–	–
YXQGTXTSDXSIXLDKKAQXXFIEYLSEGGPSSGEPPPEGSEE (synthetic construct; SITE 2: note = 2-Aminoisobutyric Acid; SITE 6: note = alpha-methyl-2-fluoro-L-phenylalanine; SITE 10: note = 3-(4-Pyridyl)-L-alanine; SITE 13: note = alpha-methyl-leucine; SITE 17: note = Lysine is chemically modified through conjugation of the epsilon-amino group of the Lysine) [Example 651 (SEQ ID NO: 657)]	1.02 nM	–	0.112 nM	–	10.7 nM	–	–	–	–
YXQGTXTSDXSIXLDKKAQXXFIEYLTEGGPSSGEPPPEGSEE (synthetic construct; SITE 2: note = 2-Aminoisobutyric Acid; SITE 6: note = alpha-methyl-2-fluoro-L-phenylalanine; SITE 10: note = 3-(4-Pyridyl)-L-alanine; SITE 13: note = alpha-methyl-leucine; SITE 17: note = Lysine is chemically modified through conjugation of the epsilon-amino group of the Lysine) [Example 652 (SEQ ID NO: 658)]	0.426 nM	–	0.0342 nM	–	15.3 nM	–	–	–	–
YXQGTXTSDXSIXLDKKAQXXFIEYLQEGGPSSGEPPPEGSEE (synthetic construct; SITE 2: note = 2-Aminoisobutyric Acid; SITE 6: note = alpha-methyl-2-fluoro-L-phenylalanine; SITE 10: note = 3-(4-Pyridyl)-L-alanine; SITE 13: note = alpha-methyl-leucine; SITE 17: note = Lysine is chemically modified through conjugation of the epsilon-amino group of the Lysine) [Example 653 (SEQ ID NO: 659)]	0.426 nM	–	0.0303 nM	–	7.29 nM	–	–	–	–
YXQGTXTSDXSILLDKKAQXAFIEYLEEGGPSSGAPPPEGTE (synthetic construct; SITE 2: note = 2-Aminoisobutyric Acid; SITE 6: note = alpha-methyl-2-fluoro-L-phenylalanine; SITE 10: note = 3-(4-Pyridyl)-L-alanine; SITE 17: note = Lysine is chemically modified through conjugation of the epsilon-amino group of the Lysine side chain with (gamma-Glu)2-CO-(CH2)1) [Example 659 (SEQ ID NO: 665)]	1.31 nM	–	0.0673 nM	–	5.89 nM	–	–	–	–
YXQGTXTSDXSILLDKKAQXAFIEYLEEGGPSSGAPPPEGTGE (synthetic construct; SITE 2: note = 2-Aminoisobutyric Acid; SITE 6: note = alpha-methyl-2-fluoro-L-phenylalanine; SITE 10: note = 3-(4-Pyridyl)-L-alanine; SITE 17: note = Lysine is chemically modified through conjugation of the epsilon-amino group of the Lysine side chain with (gamma-Glu)2-CO-(CH2)1) [Example 660 (SEQ ID NO: 666)]	1.27 nM	–	0.0646 nM	–	7.38 nM	–	–	–	–
YXQGTXTSDXSILLDKKAQXAFIEYLXEGGPSSGAPPPSGTGE (synthetic construct; SITE 2: note = 2-Aminoisobutyric Acid; SITE 6: note = alpha-methyl-2-fluoro-L-phenylalanine; SITE 10: note = 3-(4-Pyridyl)-L-alanine; SITE 17: note = Lysine is chemically modified through conjugation of the epsilon-amino group of the Lysine side chain with (gamma-Glu)2-CO-(CH2)1) [Example 661 (SEQ ID NO: 667)]	1.13 nM	–	0.0665 nM	–	1.78 nM	–	–	–	–
YXQGTXTSDXSILLDKKAQXAFIEYLEEGGPSSGAPPPSGTGE (synthetic construct; SITE 2: note = 2-Aminoisobutyric Acid; SITE 6: note = alpha-methyl-2-fluoro-L-phenylalanine; SITE 10: note = 3-(4-Pyridyl)-L-alanine; SITE 17: note = Lysine is chemically modified through conjugation of the epsilon-amino group of the Lysine side chain with (2-[2-(2-Amino-ethoxy))) [Example 662 (SEQ ID NO: 668)]	0.946 nM	–	0.0704 nM	–	4.81 nM	–	–	–	–
YXQGTXTSDXSILLDKKAQXAFIEYLXEGGPSSGAPPPSGTGE (synthetic construct; SITE 2: note = 2-Aminoisobutyric Acid; SITE 6: note = alpha-methyl-2-fluoro-L-phenylalanine; SITE 10: note = 3-(4-Pyridyl)-L-alanine; SITE 17: note = Lysine is chemically modified through conjugation of the epsilon-amino group of the Lysine side chain with (2-[2-(2-Amino-ethoxy))) [Example 663 (SEQ ID NO: 669)]	1.29 nM	–	0.0893 nM	–	1.95 nM	–	–	–	–

From patent publication US20240270821A1, “GIP/GLP1/GCG TRI-RECEPTOR AGONISTS AND USES THEREOF” (priority 2023, published 2024)
